According to patent US20150125431A1 (ZEALAND PHARMA A S, published 2015):
Non-standard residues stand in square brackets, D forms with d. Aib = CC(C)(N)C(=O)O

T1: human GLP-2 receptor (hGLP2-R), splice variant rs17681684 (human, UniProt O95838 1-553)
T1 sequence (looked up): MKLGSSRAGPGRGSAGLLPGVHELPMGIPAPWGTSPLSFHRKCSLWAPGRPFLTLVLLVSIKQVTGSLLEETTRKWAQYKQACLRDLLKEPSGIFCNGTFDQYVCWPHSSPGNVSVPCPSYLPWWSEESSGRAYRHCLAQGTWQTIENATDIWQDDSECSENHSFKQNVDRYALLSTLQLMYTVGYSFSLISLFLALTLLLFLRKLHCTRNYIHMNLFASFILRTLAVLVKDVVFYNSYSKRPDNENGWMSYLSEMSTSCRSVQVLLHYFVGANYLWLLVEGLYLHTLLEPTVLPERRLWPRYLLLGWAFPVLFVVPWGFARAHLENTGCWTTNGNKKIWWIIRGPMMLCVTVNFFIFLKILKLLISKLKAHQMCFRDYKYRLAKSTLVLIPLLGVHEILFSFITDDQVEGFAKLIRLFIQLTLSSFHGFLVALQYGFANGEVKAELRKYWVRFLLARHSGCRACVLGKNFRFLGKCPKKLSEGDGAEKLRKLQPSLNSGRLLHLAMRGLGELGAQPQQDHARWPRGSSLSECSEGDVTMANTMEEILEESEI


Tests used:
Assay in all cases: cell-based or functional assay
[1] = target: human GLP-2 receptor (hGLP2-R), splice variant rs17681684 (human) (UniProt O95838)
[2] = target: human glucagon-like peptide 1 receptor (GLP-1R) (human, UniProt P43220 24-463)
[3] = target: T1, human GLP-2 receptor (hGLP2-R), splice …

Molecule | GLP-2R EC50 (nM), cAMP AlphaScreen on HEK293 cells expressing the receptor [1] | GLP-1R EC50 (nM), cAMP AlphaScreen on HEK293 cells expressing the receptor [2] | GLP-2R EC50 (nM), cAMP AlphaScreen on HEK293 cells expressing the receptor [3]
GLP-1 (from UniProt P01275 98-127) (peptide) | > 1000 nM |  | 
H-H[Aib]DGSFSDELNTILDGKAARDFINWLIQTK-NH2 (SMILES CC[C@H](C)[C@H](NC(=O)[C@H](Cc1ccccc1)NC(=O)[C@H](CC(=O)O)NC(=O)[C@H](CCCNC(=N)N)NC(=O)[C@H](C)NC(=O)[C@H](C)NC(=O)[C@H](CCCCN)NC(=O)CNC(=O)[C@H](CC(=O)O)NC(=O)[C@H](CC(C)C)NC(=O)[C@@H](NC(=O)[C@@H](NC(=O)[C@H](CC(N)=O)NC(=O)[C@H](CC(C)C)NC(=O)[C@H](CCC(=O)O)NC(=O)[C@H](CC(=O)O)NC(=O)[C@H](CO)NC(=O)[C@H](Cc1ccccc1)NC(=O)[C@H](CO)NC(=O)CNC(=O)[C@H](CC(=O)O)NC(=O)C(C)(C)NC(=O)[C@@H](N)Cc1c[nH]cn1)[C@@H](C)O)[C@@H](C)CC)C(=O)N[C@@H](CC(N)=O)C(=O)N[C@@H](Cc1c[nH]c2ccccc12)C(=O)N[C@@H](CC(C)C)C(=O)N[C@H](C(=O)N[C@@H](CCC(N)=O)C(=O)N[C@H](C(=O)N[C@@H](CCCCN)C(N)=O)[C@@H](C)O)[C@@H](C)CC) [Compound 10: Hy-H-Aib-DGSFSDELNTILDGKAARDFINWLIQTK-NH2] |  | 0.03 nM | 3.9 nM
H-HGEGTFTSDLSKQMESKAARDFIEWLIQTKITD-OH [Compound 6: Hy-HGEGTFTSDLSKQMESKAARDFIEWLIQTKITD-OH] |  | 1.1 nM | 
H-HGEGSFSSDLSTILEGKAARDFIEWLIQTKITD-OH [Compound 13: Hy-HGEGSFSSDLSTILEGKAARDFIEWLIQTKITD-OH] |  | 18 nM | 0.1 nM
H-HGDGSFSSEMNTILDSQAARDFINWLIQTKITD-OH [Compound 4: Hy-HGDGSFSSEMNTILDSQAARDFINWLIQTKITD-OH] |  | 25 nM | 0.06 nM
H-HGDGSFSSELATILDGQAARDFIAWLIQTKITD-OH [Compound 11: Hy-HGDGSFSSELATILDGQAARDFIAWLIQTKITD-OH] |  | 0.34 nM | 0.2 nM
H-HGDGSFSSELATILDGKAARDFINWLIQTKITD-OH [Compound 7: Hy-HGDGSFSSELATILDGKAARDFINWLIQTKITD-OH] |  | 0.78 nM | 0.2 nM
H-H[Aib]DGSFSDEMNTILDNQAARDFINWLIQTKITD-OH (SMILES CC[C@H](C)[C@H](NC(=O)[C@H](Cc1ccccc1)NC(=O)[C@H](CC(=O)O)NC(=O)[C@H](CCCNC(=N)N)NC(=O)[C@H](C)NC(=O)[C@H](C)NC(=O)[C@H](CCC(N)=O)NC(=O)[C@H](CC(N)=O)NC(=O)[C@H](CC(=O)O)NC(=O)[C@H](CC(C)C)NC(=O)[C@@H](NC(=O)[C@@H](NC(=O)[C@H](CC(N)=O)NC(=O)[C@H](CCSC)NC(=O)[C@H](CCC(=O)O)NC(=O)[C@H](CC(=O)O)NC(=O)[C@H](CO)NC(=O)[C@H](Cc1ccccc1)NC(=O)[C@H](CO)NC(=O)CNC(=O)[C@H](CC(=O)O)NC(=O)C(C)(C)NC(=O)[C@@H](N)Cc1c[nH]cn1)[C@@H](C)O)[C@@H](C)CC)C(=O)N[C@@H](CC(N)=O)C(=O)N[C@@H](Cc1c[nH]c2ccccc12)C(=O)N[C@@H](CC(C)C)C(=O)N[C@H](C(=O)N[C@@H](CCC(N)=O)C(=O)N[C@H](C(=O)N[C@@H](CCCCN)C(=O)N[C@H](C(=O)N[C@H](C(=O)N[C@@H](CC(=O)O)C(=O)O)[C@@H](C)O)[C@@H](C)CC)[C@@H](C)O)[C@@H](C)CC) [Compound 1: Hy-H-Aib-DGSFSDEMNTILDNQAARDFINWLIQTKITD-OH] |  | 44 nM | 0.12 nM
H-HGEGTFTSDLSKQMEGQAVRDFIEWLIQTKITD-OH [Compound 5: Hy-HGEGTFTSDLSKQMEGQAVRDFIEWLIQTKITD-OH] |  | 1 nM | 0.2 nM
H-HGDGSFSDEMNTILDNKAARDFINWLIQTKITD-OH [Compound 2: Hy-HGDGSFSDEMNTILDNKAARDFINWLIQTKITD-OH] |  | 77 nM | 0.02 nM
H-HGEGTFTSDLSTILENKAARDFIEWLIQTKITD-OH [Compound 8: Hy-HGEGTFTSDLSTILENKAARDFIEWLIQTKITD-OH] |  | 16 nM | 0.008 nM
H-HGEGSFSSDLSTILENKAARDFIEWLIQTKITD-OH [Compound 9: Hy-HGEGSFSSDLSTILENKAARDFIEWLIQTKITD-OH] |  | 9.1 nM | 0.2 nM
